For this test, the target named is FevR of F. holarctica LVS fused to the Zif protein (F. holarctica LVS). Kind of test: two-hybrid.

In turn, “MglA/SspA complex of the bridge two-hybrid system (MglA of F. tularensis SCHU S4 fused to ω, with Ss” showed a β-galactosidase activity in strain AW23 after 300 min of 1070 AU and a β-galactosidase activity in strain AW24 after 300 min of 1300 AU.

The values are drawn from paper PMC3792966.
